Test results taken from patent publication US20250099587A1 (KELONIA THERAPEUTICS, published 2025).
Residue numbers refer to the chain shown, from its start.

B1: anti-BCMA CAR of recombinant lentivirus LV 7 (SEQ ID NO: 268) (receptor)
chain: DIQMTQSPSSLSASVGDRVTITCRASQSISSYLNWYQQKPGKAPKLLIYAASSLQSGVPSRFSGSGSGTDFTLTISSLQPEDFATYYCQQAHSSPITFGGGTKVEIKGGGGSGGGGSGGGGSGGGGSEVQLLESGGGLVQPGGSLRLSCAASGFTFSNYAMSWVRQAPGKGLEWVSAISGSGGSTYYADSVKGRFTISRDNSKNTLYLQMNSLRAEDTAVYYCARPGDGYYEGVYFDYWGQGTLVTVSSTTTPAPRPPTPAPTIASQPLSLRPEACRPAAGGAVHTRGLDFACDIYIWAPLAGTCGVLLLSLVITLYCKRGRKKLLYIFKQPFMRPVQTTQEEDGCSCRFPEEEEGGCELRVKFSRSADAPAYQQGQNQLYNELNLGRREEYDVLDKRRGRDPEMGGKPRRKNPQEGLYNELQKDKMAEAYSEIGMKGERRRGKGHDGLYQGLSTATKDTYDALHMQALPPR
B2: anti-BCMA CAR of recombinant lentivirus LV 10 (SEQ ID NO: 274) (receptor)
chain: EVQLLESGGGLVQPGGSLRLSCAASGFTFESEAMSWYRQAPGKERELVSVITSEGSTYYADSVKGRFTISRDNSKNTLYLQMNSLRAEDTAVYYCAHIEWETRLNWGQGTQVTVSSTTTPAPRPPTPAPTIASQPLSLRPEACRPAAGGAVHTRGLDFACDIYIWAPLAGTCGVLLLSLVITLYCKRGRKKLLYIFKQPFMRPVQTTQEEDGCSCRFPEEEEGGCELRVKFSRSADAPAYQQGQNQLYNELNLGRREEYDVLDKRRGRDPEMGGKPRRKNPQEGLYNELQKDKMAEAYSEIGMKGERRRGKGHDGLYQGLSTATKDTYDALHMQALPPR
B3: anti-BCMA CAR of recombinant lentivirus LV 3 (SEQ ID NO: 259) (receptor)
chain: QVQLVESGGGVVQPGRSLRLSCAASGFTFSSYGMHWVRQAPGKGLEWVAVISYEGSNKYYADSVKGRFTISRDNSKNTLYLQMNSLRAEDTAVYYCARELGDGMDVWGQGTTVTVSSGGGGSGGGGSGGGGSGGGGSEIVLTQSPATLSLSPGERATLSCRASQSVSSYLAWFQQKPGQAPRLLIYDASNRATGIPARFSGSGSGTDFTLTISSLEPEDFAVYYCQQRVDLWTFGGGTKVEIKTTTPAPRPPTPAPTIASQPLSLRPEACRPAAGGAVHTRGLDFACDIYIWAPLAGTCGVLLLSLVITLYCKRGRKKLLYIFKQPFMRPVQTTQEEDGCSCRFPEEEEGGCELRVKFSRSADAPAYQQGQNQLYNELNLGRREEYDVLDKRRGRDPEMGGKPRRKNPQEGLYNELQKDKMAEAYSEIGMKGERRRGKGHDGLYQGLSTATKDTYDALHMQALPPR
notes: also called LV 3.1 to LV 3.9
B4: anti-BCMA CAR of recombinant lentivirus LV 1 (SEQ ID NO: 256) (receptor)
chain: EIVLTQSPATLSLSPGERATLSCRASQSVSSYLAWYQQKPGQAPRLLIYDASNRATGIPARFSGSGSGTDFTLTISSLEPEDFAVYYCQQRVVYPITFGGGTKVEIKGGGGSGGGGSGGGGSGGGGSQITLKESGPTLVKPTQTLTLTCTFSGFSLSTSGVGVGWIRQPPGKALEWLALIYWNDEKRYSPSLKSRLTITKDTSKNQVVLTMTNMDPVDTAVYYCARDEYGGFDIWGQGTMVTVSSTTTPAPRPPTPAPTIASQPLSLRPEACRPAAGGAVHTRGLDFACDIYIWAPLAGTCGVLLLSLVITLYCKRGRKKLLYIFKQPFMRPVQTTQEEDGCSCRFPEEEEGGCELRVKFSRSADAPAYQQGQNQLYNELNLGRREEYDVLDKRRGRDPEMGGKPRRKNPQEGLYNELQKDKMAEAYSEIGMKGERRRGKGHDGLYQGLSTATKDTYDALHMQALPPR
B5: anti-BCMA CAR of recombinant lentivirus LV 2 (SEQ ID NO: 258) (receptor)
chain: B4 chain with V92F, V93D, E185D
B6: anti-BCMA CAR of recombinant lentivirus LV 11 (SEQ ID NO: 275) (receptor)
chain: EVQLLESGGGLVQPGGSLRLSCAASGFTFDEYTMHWFRQAPGKEREFVSAISGGGSETYYADSVKGRFTISRDNSKNTLYLQMNSLRAEDTAVYYCAAGGEEAGVGYWGQGTQVTVSSTTTPAPRPPTPAPTIASQPLSLRPEACRPAAGGAVHTRGLDFACDIYIWAPLAGTCGVLLLSLVITLYCKRGRKKLLYIFKQPFMRPVQTTQEEDGCSCRFPEEEEGGCELRVKFSRSADAPAYQQGQNQLYNELNLGRREEYDVLDKRRGRDPEMGGKPRRKNPQEGLYNELQKDKMAEAYSEIGMKGERRRGKGHDGLYQGLSTATKDTYDALHMQALPPR
B7: anti-BCMA CAR of recombinant lentivirus LV 18 (SEQ ID NO: 283) (receptor)
chain: EVQLLESGGGLVQPGGSLRLSCAASGFTFSSEGMSWVRQAPGKERELVSAISGSGDHTYYADSVRGRFTISRDNSKNTLYLQMNSLRAEDTAVYYCNALEGGPTTAIQPGGPDYWGQGTQVTVSSTTTPAPRPPTPAPTIASQPLSLRPEACRPAAGGAVHTRGLDFACDIYIWAPLAGTCGVLLLSLVITLYCKRGRKKLLYIFKQPFMRPVQTTQEEDGCSCRFPEEEEGGCELRVKFSRSADAPAYQQGQNQLYNELNLGRREEYDVLDKRRGRDPEMGGKPRRKNPQEGLYNELQKDKMAEAYSEIGMKGERRRGKGHDGLYQGLSTATKDTYDALHMQALPPR
B8: anti-BCMA CAR of recombinant lentivirus LV 9 (SEQ ID NO: 273) (receptor)
chain: EVQLLESGGGLVQPGGSLRLSCAASGFTFGSEAMSWVRQAPGKERELVSAISGSGEVTYYADSVKGRFTISRDNSKNTLYLQMNSLRAEDTAVYYCQRLVEAKRHWGQGTQVTVSSTTTPAPRPPTPAPTIASQPLSLRPEACRPAAGGAVHTRGLDFACDIYIWAPLAGTCGVLLLSLVITLYCKRGRKKLLYIFKQPFMRPVQTTQEEDGCSCRFPEEEEGGCELRVKFSRSADAPAYQQGQNQLYNELNLGRREEYDVLDKRRGRDPEMGGKPRRKNPQEGLYNELQKDKMAEAYSEIGMKGERRRGKGHDGLYQGLSTATKDTYDALHMQALPPR
notes: also called LV 9.1 to LV 9.9
B9: anti-BCMA CAR of recombinant lentivirus LV 12 (SEQ ID NO: 276) (receptor)
chain: EVQLLESGGGLVQPGGSLRLSCAASGFTFEDYAMSWFRQAPGKEREGVSAISGKGGSTYYADSVKGRFTISRDNSKNTLYLQMNSLRAEDTAVYYCAVLDEEAGAEGGYWGQGTQVTVSSTTTPAPRPPTPAPTIASQPLSLRPEACRPAAGGAVHTRGLDFACDIYIWAPLAGTCGVLLLSLVITLYCKRGRKKLLYIFKQPFMRPVQTTQEEDGCSCRFPEEEEGGCELRVKFSRSADAPAYQQGQNQLYNELNLGRREEYDVLDKRRGRDPEMGGKPRRKNPQEGLYNELQKDKMAEAYSEIGMKGERRRGKGHDGLYQGLSTATKDTYDALHMQALPPR
B10: anti-BCMA CAR of recombinant lentivirus LV 13 (SEQ ID NO: 277) (receptor)
chain: B9 chain with E30D, D31R, G53T, K54S, G56D
notes: also called LV 13.1 to LV 13.9
B11: anti-BCMA CAR of recombinant lentivirus LV 15 (SEQ ID NO: 279) (receptor)
chain: EVQLLESGGGLVQPGGSLRLSCAASGFTFDSYTMSWYRQAPGKERELVSAISGHGDSTYYADSVKGRFTISRDNSKNTLYLQMNSLRAEDTAVYYCTRISITTEWLAGDYWGQGTQVTVSSTTTPAPRPPTPAPTIASQPLSLRPEACRPAAGGAVHTRGLDFACDIYIWAPLAGTCGVLLLSLVITLYCKRGRKKLLYIFKQPFMRPVQTTQEEDGCSCRFPEEEEGGCELRVKFSRSADAPAYQQGQNQLYNELNLGRREEYDVLDKRRGRDPEMGGKPRRKNPQEGLYNELQKDKMAEAYSEIGMKGERRRGKGHDGLYQGLSTATKDTYDALHMQALPPR
B12: anti-BCMA CAR of recombinant lentivirus LV 5 (SEQ ID NO: 263) (receptor)
chain: QVQLVESGGGLVKPGGSLRLSCAASGFTFSDYYMSWIRQAPGKGLEWVSYISSSGSTIYYADSVKGRFTISRDNAKNSLYLQMNSLRAEDTAVYYCARDQGNYGVDVWGQGTTVTVSSGGGGSGGGGSGGGGSGGGGSDIQMTQSPSTLSASVGDRVTITCRASQSISSWLAWYQQKPGKAPKLLIYEASSLESGVPSRFSGSGSGTEFTLTISSLQPDDFATYYCQQSDSHPITFGGGTKVEIKTTTPAPRPPTPAPTIASQPLSLRPEACRPAAGGAVHTRGLDFACDIYIWAPLAGTCGVLLLSLVITLYCKRGRKKLLYIFKQPFMRPVQTTQEEDGCSCRFPEEEEGGCELRVKFSRSADAPAYQQGQNQLYNELNLGRREEYDVLDKRRGRDPEMGGKPRRKNPQEGLYNELQKDKMAEAYSEIGMKGERRRGKGHDGLYQGLSTATKDTYDALHMQALPPR
notes: also called LV 5.1 to LV 5.9
B13: anti-BCMA CAR of recombinant lentivirus LV 8 (SEQ ID NO: 270) (receptor)
chain: DIQMTQSPSSLSASVGDRVTITCQASQDIANYLNWYQQKPGKAPKLLIYDASNLETGVPSRFSGSGSGTDFTFTISSLQPEDIATYYCQQHFNLPLTFGGGTKVEIKGGGGSGGGGSGGGGSGGGGSQITLKESGPTLVKPTQTLTLTCTFSGFSLSTSGVGVGWIRQPPGKALEWLALIYWNDEKRYSPSLKSRLTITKDTSKNQVVLTMTNMDPVDTAVYYCAREGSHDYKSSNWFDPWGQGTLVTVSSTTTPAPRPPTPAPTIASQPLSLRPEACRPAAGGAVHTRGLDFACDIYIWAPLAGTCGVLLLSLVITLYCKRGRKKLLYIFKQPFMRPVQTTQEEDGCSCRFPEEEEGGCELRVKFSRSADAPAYQQGQNQLYNELNLGRREEYDVLDKRRGRDPEMGGKPRRKNPQEGLYNELQKDKMAEAYSEIGMKGERRRGKGHDGLYQGLSTATKDTYDALHMQALPPR
notes: also called LV 8.1 to LV 8.9

target: T1, recombinant, phycoerythrin (PE) labeled, BCMA extracellular domain-FC fusion protein (Homo sapiens (Human), UniProt Q02223 1-54, phycoerythrin (PE) label); experiment: flow cytometry of transduced PBMCs stained with BCMA-PE (PE-labeled BCMA extracellular domain-Fc)
T1 construct: The whole entry is named here; only the extracellular domain stood in the assay; also called BCMA-PE; not shown: Fc part of the staining reagent
T1 sequence: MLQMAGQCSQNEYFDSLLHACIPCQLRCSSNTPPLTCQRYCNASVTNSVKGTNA
Protocol: 5×10⁵ human PBMCs were plated in each well of a 24-well plate. Cells were transduced with recombinant lentiviruses LV 1 to LV 19 at a MOI 2 based on the Jurkat functional titer, or a 0.5 mL volumetric transduction if MOI 2 was not achievable. Seven days post-transduction, PBMCs were harvested and stained with BCMA-PE and analyzed by flow cytometry to assess the percentage of anti-BCMA CAR expressing cells. FIG. 2B.

| Binder | binding result |
| --- | --- |
| B1 | binds |
| B2 | binds |
| B3 | binds |
| B4 | binds |
| B5 | binds |
| B6 | binds |
| B7 | binds |
| B8 | binds |
| B9 | binds |
| B10 | binds |
| B11 | binds |
| B12 | binds |
| B13 | binds |
